Assay results as given in the supplement of paper PMC12042874.
± gives the uncertainty stated by the source.

Assay: amyloid nucleation score (Sup35N fusion, yeast selection) (log enrichment); library NNK1; higher = more nucleation; inactive = no reads after selection
Procedure, shortened: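 On medium lacking adenine and uracil, psi-negative yeast expressing peptides of 20 random codons fused to Sup35N were grown 7 days at 30°C after a 24-hour induction with 100 μM copper sulfate. Illumina sequencing of input and output plasmid inserts gave the reads, and sequences under 100 input reads were excluded. The nucleation score is the DiMSum log enrichment of output over input reads, centred on the mode score of non-aggregating sequences.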

Substance	amyloid nucleation score
YTIEYTSITVIVCGILYNT	6.932 ± 0.05
YTLFWNVEGNLWQTPSVCNL	0.141 ± 0.95
YTMMCGISQRQLTKRRPTLW	-0.205 ± 0.52
YTSSFVKDGKHWSRSKTGVY	-0.569 ± 0.73
YTSTIKYLVYNN	-1.08 ± 0.94
YTWMSIEIY	1.71 ± 0.4
YVASLYQYFYLLIKIDCVFF	-0.824 ± 0.97
YVFNFLIMLLLGVA	-0.665 ± 0.32
YVHLYDDCTIGSTRAEGRGY	0.777 ± 1.2
YVIDGPSLSTCLVRV	0.839 ± 0.5
YVLSLYTNGRSPSA	0.203 ± 0.56
YVLTCFAELGGRRGVS	-0.531 ± 1.4
YVRDGVPSWMQCYLRGSFGG	0.208 ± 0.72
YVVNYYNRQSIGCFVWTWRR	8.169 ± 0.05
YVWVGADDFFYRGYVFSRLV	-0.212 ± 1.4
YVYNMFRL	2.88 ± 0.14
YVYWR	-1.82 ± 2.7
YWCNYVIVMSCKWG	inactive
YWFCNRIGIVGIVLSGYLCL	-0.154 ± 0.26

Substance	amyloid nucleation score
YWGYKTGQDCFSHSIRRRIL	-0.105 ± 0.85
YWIDR	-0.281 ± 0.42
YWRCCQVCRLRMDPQYFPDG	-0.358 ± 0.69
YWVILFPITIWSVKTSVGNH	1.7 ± 0.31
YYDSGVSPAVQSPECSTSGA	0.186 ± 0.93
YYFKRNTCCAAVLKHPFPVS	0.019 ± 0.99
YYFSVYQFCGGVFGSRDCLE	6.711 ± 0.05
YYGNTRWLDYMPLL	inactive
YYIRNYVRFRRS	-0.797 ± 0.48
YYIVVCR	0.932 ± 0.97
YYLQDDTWGLKFNPIVSTCF	1.13 ± 0.54
YYLSVNR	-0.116 ± 0.67
YYMTIFERFSLHFTMGLNLG	0.752 ± 0.56
YYRGCTWLAYPEERTALPRM	0.208 ± 0.27
YYSVGYGTYLTEFLCGNLRG	0.989 ± 0.35
YYWIYVIPSIFSIF	5.5 ± 0.088
YYWVFCFFA	7.47 ± 0.079
YYYVWNFGGWIGFRNVVSIR	0.05 ± 0.98
